Measured values taken from patent US20160152684A1.

Assays:
[1] = biological target: FcRn, FCGRT & B2M dimer receptor (Sino Biological Inc.); assay: SPR, 100 nM analyte, (RU at pH 7.4 / RU at pH 6.0) x 100
[2] = biological target: FcRn, FCGRT & B2M dimer receptor (Sino Biological Inc.); assay: SPR, 25 nM analyte, (RU at pH 7.4 / RU at pH 6.0) x 100
[3] = biological target: FcRn, FCGRT & B2M dimer receptor (Sino Biological Inc.); assay: SPR, FcRn on CM5 chip, 12.5 nM analyte, RU 10 s after start of dissociation at pH 7.4
[4] = biological target: FcRn, FCGRT & B2M dimer receptor (Sino Biological Inc.); assay: SPR, FcRn on CM5 chip, 50 nM analyte, RU 2 s before end of pH 6.0 injection
[5] = biological target: FcRn, FCGRT & B2M dimer receptor (Sino Biological Inc.); assay: SPR, FcRn on CM5 chip, 50 nM analyte, RU 10 s after start of dissociation at pH 7.4
[6] = biological target: FcRn, FCGRT & B2M dimer receptor (Sino Biological Inc.); assay: SPR, FcRn on CM5 chip, 12.5 nM analyte, RU 2 s before end of pH 6.0 injection
[7] = biological target: FcRn, FCGRT & B2M dimer receptor (Sino Biological Inc.); assay: SPR, 12.5 nM analyte, (RU at pH 7.4 / RU at pH 6.0) x 100
[8] = biological target: FcRn, FCGRT & B2M dimer receptor (Sino Biological Inc.); assay: SPR (BIACORE 3000), FcRn on CM5 chip, pH 6.0, 1:1 Langmuir with drifting baseline
[9] = biological target: FcRn, FCGRT & B2M dimer receptor (Sino Biological Inc.); assay: SPR, FcRn on CM5 chip, 100 nM analyte, RU 2 s before end of pH 6.0 injection
[10] = biological target: FcRn, FCGRT & B2M dimer receptor (Sino Biological Inc.); assay: SPR, FcRn on CM5 chip, 100 nM analyte, RU 10 s after start of dissociation at pH 7.4
[11] = biological target: FcRn, FCGRT & B2M dimer receptor (Sino Biological Inc.); assay: SPR, mean over 100-12.5 nM analyte, (RU at pH 7.4 / RU at pH 6.0) x 100
[12] = biological target: FcRn, FCGRT & B2M dimer receptor (Sino Biological Inc.); assay: SPR, FcRn on CM5 chip, 25 nM analyte, RU 10 s after start of dissociation at pH 7.4
[13] = biological target: FcRn, FCGRT & B2M dimer receptor (Sino Biological Inc.); assay: SPR, FcRn on CM5 chip, 25 nM analyte, RU 2 s before end of pH 6.0 injection
[14] = biological target: FcRn, FCGRT & B2M dimer receptor (Sino Biological Inc.); assay: SPR, 50 nM analyte, (RU at pH 7.4 / RU at pH 6.0) x 100

Sequence of Human growth hormone-immunoglobulin Fc fragment conjugate (P01241 27-217): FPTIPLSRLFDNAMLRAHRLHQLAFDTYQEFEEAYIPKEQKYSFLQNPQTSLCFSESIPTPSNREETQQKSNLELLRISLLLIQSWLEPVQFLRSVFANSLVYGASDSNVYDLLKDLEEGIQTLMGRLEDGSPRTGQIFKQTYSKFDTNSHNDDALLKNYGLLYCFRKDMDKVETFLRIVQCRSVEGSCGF

Row | Binding ratio (%) [1] [%] | Binding ratio (%) [2] [%] | Binding amount (RU) at pH 7.4 [3] [RU] | Binding amount (RU) at pH 6.0 [4] [RU] | Binding amount (RU) at pH 7.4 [5] [RU] | Binding amount (RU) at pH 6.0 [6] [RU] | Binding ratio (%) [7] [%] | Kd [8] [nM] | koff [8] [s⁻¹] | kon [8] [M⁻¹ s⁻¹] | Binding amount (RU) at pH 6.0 [9] [RU] | Binding amount (RU) at pH 7.4 [10] [RU] | Average binding ratio (%) [11] [%] | Binding amount (RU) at pH 7.4 [12] [RU] | Binding amount (RU) at pH 6.0 [13] [RU] | Binding ratio (%) [14] [%] | Substance
1 | 3.2 | 5.6 | 6.4 | 157 | 6.7 | 91.3 | 7 | 30 | 0.0093 | 300000 | 197 | 6.4 | 5 | 6.7 | 120 | 4.3 | Interferon-immunoglobulin Fc fragment conjugate (from UniProt P01563 24-188)
2 | 4 | 7.4 | 8.1 | 153 | 7.7 | 82.9 | 9.8 | 26.8 | 0.0036 | 120000 | 206 | 8.2 | 6.6 | 8.3 | 112 | 5.1 | Human growth hormone-immunoglobulin Fc fragment conjugate (from UniProt P01241 27-217)
